The supplement of paper PMC7877785
± gives the uncertainty stated by the source.

Test: self-splicing fitness, log relative to wild type (ln ratio); higher = more splicing; Tetrahymena group I intron in knt gene, E. coli kanamycin selection, DiMSum; sequences stand for … in CUCUCU…GGAGGGAAAAGUUAUCAGGCAUGCACCUGGUAGCUAGUCUUUAAACCAAUAGAUUGCAUCGGUUUAAAAGGCAAGACCGUCAAAUUGCGGGAAAGGGGUCAACAGCCGUUCAGUACCAAGUCUCAGGGGAAACUUUGAGAUGGCCUUGCAAAGGGUAUGGUAAUAAGCUGACGGACAUGGUCCUAACCACGCAGCCAAGUCCUAAGUCAACAGAUCUUCUGUUGAUAUGGAUGCAGUUCACAGACUAAAUGUCGGUCGGGGAAGAUGUAUUCUUCUCAUAAGAUAUAGUCGGACCUCUCCUUAAUGGGAGCUAGCGGAUGAAGUGAUGCAACACUGGAGCCGCUGGGAACUAAUUUGUAUGCGAAAGUAUAUUGAUUAGUUUUGGAGUACUCGUGGUCG
Summary of the method: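 Fitness was computed with DiMSum as the error-weighted combination of replicate fold changes, kanamycin versus none, each normalised to wild type. The library randomised all eight intron nucleotides of the P1ex region, with the intron placed in the knt kanamycin-resistance gene on pET-22b(+) in E. coli BL21(DE3). Six replicate transformations were grown overnight at 37°C or 30°C on LB agar with or without 25 μg/mL kanamycin, plus 100 μg/mL carbenicillin, 50 μM IPTG and 0.2% rhamnose. Pooled colonies were amplicon-sequenced on an Illumina HiSeq 2500.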

Row | Sequence | self-splicing fitness (ln) (30 °C) | self-splicing fitness (ln) (37 °C)
1 | UAACAGCAAUAUUACGUGGA | -3.11 ± 0.14 | -1.44 ± 0.08
2 | UAACAGCAAUAUUACGUUAC | -3.91 ± 0.2 | -3.09 ± 0.24
3 | UAAGAGCAAUAUUACGAAAU | – | -1.61 ± 0.32
4 | UAAGAGCAAUAUUACGAAGU | -3.61 ± 0.31 | -1.85 ± 0.41
5 | UAAGAGCAAUAUUACGAAUC | -2.87 ± 0.29 | -1.79 ± 0.35
6 | UAAGAGCAAUAUUACGACGG | -3.85 ± 0.26 | -2.54 ± 0.21
7 | UAAGAGCAAUAUUACGAGAG | -2.23 ± 0.38 | -1.95 ± 0.36
8 | UAAGAGCAAUAUUACGAGCA | -3.18 ± 0.29 | -0.84 ± 0.14
9 | UAAGAGCAAUAUUACGAGGA | -3.37 ± 0.29 | -2.25 ± 0.35
10 | UAAGAGCAAUAUUACGAUGG | -3.51 ± 0.21 | -1.68 ± 0.16
11 | UAAGAGCAAUAUUACGAUGU | -4.13 ± 0.26 | -1.82 ± 0.2
12 | UAAGAGCAAUAUUACGCACA | – | -1.42 ± 0.33
13 | UAAGAGCAAUAUUACGCCGC | -2.81 ± 0.41 | –
14 | UAAGAGCAAUAUUACGCGUU | – | -2.04 ± 0.33
15 | UAAGAGCAAUAUUACGCUUU | -2.81 ± 0.18 | -1.85 ± 0.31
16 | UAAGAGCAAUAUUACGUAAG | -3.02 ± 0.2 | -2.1 ± 0.21
17 | UAAGAGCAAUAUUACGUAUU | -4.58 ± 0.34 | -2.02 ± 0.2
18 | UAAGAGCAAUAUUACGUCAG | -3.04 ± 0.25 | -2.33 ± 0.33
19 | UAAGAGCAAUAUUACGUUAA | -3.21 ± 0.22 | -2.3 ± 0.2
20 | UAAGAGCAAUAUUACGUUCA | -1.29 ± 0.13 | -0.735 ± 0.14
21 | UAAGAGCAAUAUUACGUUUU | -3.31 ± 0.15 | -3.27 ± 0.2
22 | UAAUAGCAAUAUUACGACCG | -0.0649 ± 0.15 | 0.638 ± 0.17
23 | UAAUAGCAAUAUUACGAUAG | -2.06 ± 0.27 | -2.99 ± 0.38
24 | UAAUAGCAAUAUUACGAUGG | -3.31 ± 0.16 | -1.18 ± 0.13
25 | UAAUAGCAAUAUUACGAUUC | – | -2.05 ± 0.23

Row | Sequence | self-splicing fitness (ln) (30 °C) | self-splicing fitness (ln) (37 °C)
26 | UAAUAGCAAUAUUACGCACC | -2.04 ± 0.21 | -0.918 ± 0.24
27 | UAAUAGCAAUAUUACGCAUU | -2.83 ± 0.21 | -2.15 ± 0.28
28 | UAAUAGCAAUAUUACGCGCA | -1.13 ± 0.086 | 0.129 ± 0.1
29 | UAAUAGCAAUAUUACGCGGU | -3 ± 0.31 | -2.29 ± 0.35
30 | UAAUAGCAAUAUUACGCGUU | -4.21 ± 0.17 | -2.66 ± 0.15
31 | UAAUAGCAAUAUUACGCUCA | -0.0964 ± 0.088 | -0.235 ± 0.096
32 | UAAUAGCAAUAUUACGCUUG | -0.7 ± 0.082 | -0.621 ± 0.096
33 | UAAUAGCAAUAUUACGGAUC | – | -2.05 ± 0.41
34 | UAAUAGCAAUAUUACGGCGA | -1.6 ± 0.21 | -0.266 ± 0.22
35 | UAAUAGCAAUAUUACGGGGG | -3.12 ± 0.19 | -3.37 ± 0.39
36 | UAAUAGCAAUAUUACGGUCA | -0.412 ± 0.11 | -0.333 ± 0.11
37 | UAAUAGCAAUAUUACGGUGG | -4.08 ± 0.25 | -1.12 ± 0.12
38 | UAAUAGCAAUAUUACGGUUC | -2.91 ± 0.29 | –
39 | UAAUAGCAAUAUUACGUCAC | -3.93 ± 0.26 | 0.0385 ± 0.19
40 | UAAUAGCAAUAUUACGUCAU | -4 ± 0.28 | -2.52 ± 0.22
41 | UAAUAGCAAUAUUACGUUCU | -2.47 ± 0.29 | -1.9 ± 0.32
42 | UAAUAGCAAUAUUACGUUUU | -4.25 ± 0.29 | -2.73 ± 0.17
43 | UACAAGCAAUAUUACGAAAU | -2.52 ± 0.16 | -3.01 ± 0.29
44 | UACAAGCAAUAUUACGAUAG | -2.16 ± 0.093 | -0.848 ± 0.089
45 | UACAAGCAAUAUUACGAUCU | -0.941 ± 0.075 | -0.61 ± 0.077
46 | UACAAGCAAUAUUACGAUUC | -3.23 ± 0.13 | -2.04 ± 0.16
47 | UACAAGCAAUAUUACGAUUG | -3.18 ± 0.17 | -1.8 ± 0.17
48 | UACAAGCAAUAUUACGCAAG | -2.81 ± 0.12 | -1.6 ± 0.11
49 | UACAAGCAAUAUUACGCAGA | -2.31 ± 0.15 | -1.29 ± 0.1
50 | UACAAGCAAUAUUACGCCAA | -1.74 ± 0.18 | -1.07 ± 0.15
